Results on 1 molecule are retold here after patent US20150246953A1 (Scripps Research, published 2015).

In the test the target is T1, MG281F2 construct, residues 278 to 450 with N-terminal 6-His tag and thrombin cleavage site (Mycoplasma genitalium, UniProt P47523 279-452).
T1 sequence: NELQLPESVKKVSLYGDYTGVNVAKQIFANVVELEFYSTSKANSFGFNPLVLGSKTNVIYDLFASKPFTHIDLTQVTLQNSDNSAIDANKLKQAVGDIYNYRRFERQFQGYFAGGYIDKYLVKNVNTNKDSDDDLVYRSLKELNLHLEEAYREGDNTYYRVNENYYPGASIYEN
The test is described as follows: Western blot, plasma 13PL as primary antibody.

B1: IgG from multiple myeloma patient plasma 13PL (antibody, V domains shown)
VH: AVSLVESGGGTVEPGSTLRLSCAASGFTFGSYAFHWVRQAPGDGLEWVAFISYNGSSKYYANFVKGRFTISRDNSSNTLSLQMNSLKASDTAVYYCARAPDCAQADCHKGAFGYWGQGTLVTVSS
VL: DIEMTQSPSSLSASTGDKVTITCQASQDIAQFLDWYQQRPGDTPKLLIYDASNLAIGVPSRFTGSGSGTDFTFTISSLQPEDIAVYYCQHYDDFPISFGPGTKLETKR
notes: also called multiple myeloma antibody 13PL
B1: the binding result is “no binding (tested: 1 µg/µg and 2 µg/µg)”.
